These results are taken from patent publication US6506881B1, “Anti-HMFG antibodies and processes for their production” (Celltech R&D Limited, priority 1991, dated 2003).

In assay [1] the test system is polymorphic epithelial mucin (PEM). In words: Direct binding ELISA on PEM-coated microwell plates, transiently expressed antibodies. The arrangement: species or system human. The following applies: from all direct binding assays (FIG. 22, 23). As for the experimental part: Direct binding ELISA assays for determining the binding activity of the transiently expressed antibodies were carried out as follows.
An affinity column was prepared by attaching the CTM01 MAb to a suitable chromatographic medium in conventional manner. In a first method, pooled human urine samples were applied directly to the affinity column. In a second method, human milk was subjected to low speed centrifugation to separate the cream from skimmed milk. The skimmed milk was then subjected to high speed centrifugation to produce an aqueous and a lipid component. The aqueous component was applied to the affinity column.
Once the affinity column was loaded, by either of the two methods, column fractions were eluted at high and low pHs, neutralised and assayed for reactivity with the CTM01 MAb. Fractions showing reactivity were pooled and dialysed.
Microwell plates were coated with PEM obtained as described above. The microwells were then incubated with serial dilutions of culture supernatants.
Direct binding assays were carried out on the culture supernatants produced by the doubly transfected cell lines.

Assay [2] concerns MX-1 breast carcinoma cells. In words: In vitro cell binding and internalisation of 125I-labelled antibody, MX-1. Type of assay: cell-based. Conditions: MX-1 cells; 125I-labelled antibody at 2 μg/million cells; continuous exposure. The protocol:
(§1) Antibody, purified from the supernatant of each cultured cell line by protein-A sepharose chromatography was radiolabelled (^125I) and incubated using a conventional continuous exposure method with either MX-1 or MCF-7 breast carcinoma cells. Radiolabelled murine CTMO1 was used in all tests as a comparison. All antibodies were incubated at 2 μg/million cells. The total binding of antibodies to the cells and the peak net uptake of the antibodies by the cells was determined.

For assay [3], the system named is MCF-7 breast carcinoma cells. In words: In vitro cell binding and internalisation of 125I-labelled antibody, MCF-7. Conditions: MCF-7 cells; 125I-labelled antibody at 2 μg/million cells; continuous exposure. Type of assay: cell-based. As for the experimental part: as §1

B1: gL1gH2: CDR-grafted light chain gL1 with CDR-grafted heavy chain gH2, transiently expressed (antibody, V domains shown)
VH: QIQLVQSGAEVKKPGSSVKVSCKASGYTFTDYYINWMRQAPGQGLEWIGWIDPGSGNTKYNEKFKGRATLTVDTSTNTAYMELSSLRSEDTAFYFCAREKTTYYYAMDYWGQGTLVTVSS
VL: DIQMTQSPSTLSASVGDRVTITCRSSKSLLHSNGDTFLYWFQQKPGKAPKLLMYRMSNLASGVPSRFSGSGSGTEFTLTISSLQPDDFATYYCMQHLEYPFTFGQGTKVEVKR
For B1, in assay [1], the “order of binding activity of antibodies produced by transient expression” value was “cLcH3>gL1ch=gL1gH2>cLgH2=gL2H2=gL1gH1=gL2cH>gL2gH1”.

B2: gL1gH1: CDR-grafted light chain gL1 with CDR-grafted heavy chain gH1 (antibody, V domains shown)
VH: QIQLVQSGAEVKKPGSSVKVSCKASGYTFTDYYINWMRQAPGQGLEWMGWIDPGSGNTKYNEKFKGRVTITVDTSTNTAYMELSSLRSEDTAFYFCAREKTTYYYAMDYWGQGTLVTVSS
VL: DIQMTQSPSTLSASVGDRVTITCRSSKSLLHSNGDTFLYWFQQKPGKAPKLLMYRMSNLASGVPSRFSGSGSGTEFTLTISSLQPDDFATYYCMQHLEYPFTFGQGTKVEVKR
With B2, the “order of binding activity of antibodies produced by transient expression” value in assay [1] is listed as “cLcH3>gL1ch=gL1gH2>cLgH2=gL2H2=gL1gH1=gL2cH>gL2gH1”.

B3: hu:CTMO1: CDR-grafted humanised CTMO1, gL1 light chain, gH2 heavy chain, altered human IgG4 (IgG4P) constant domains (antibody, V domains shown)
VH: QIQLVQSGAEVKKPGSSVKVSCKASGYTFTDYYINWMRQAPGQGLEWIGWIDPGSGNTKYNEKFKGRATLTVDTSTNTAYMELSSLRSEDTAFYFCAREKTTYYYAMDYWGQGTLVTVSS
VL: DIQMTQSPSTLSASVGDRVTITCRSSKSLLHSNGDTFLYWFQQKPGKAPKLLMYRMSNLASGVPSRFSGSGSGTEFTLTISSLQPDDFATYYCMQHLEYPFTFGQGTKVEVKR
For the molecule B3, the “Peak Net Uptake (molecules/cell)” value in assay [2] is 150,000 molecules/cell; in assay [3], 90,000 molecules/cell. The entries for the “Total Binding, 0° (molecules/cell)” value in assay [2] and in assay [3] were 1,100,000 molecules/cell and 450,000 molecules/cell, respectively.

B4: hu1:CTMO1: CDR-grafted humanised CTMO1, gL1 light chain, gH2 heavy chain, human IgG2 constant domains, from NSO cells (antibody, V domains shown)
VH: QIQLVQSGAEVKKPGSSVKVSCKASGYTFTDYYINWMRQAPGQGLEWIGWIDPGSGNTKYNEKFKGRATLTVDTSTNTAYMELSSLRSEDTAFYFCAREKTTYYYAMDYWGQGTLVTVSS
VL: DIQMTQSPSTLSASVGDRVTITCRSSKSLLHSNGDTFLYWFQQKPGKAPKLLMYRMSNLASGVPSRFSGSGSGTEFTLTISSLQPDDFATYYCMQHLEYPFTFGQGTKVEVKR
In the case of B4, the “Peak Net Uptake (molecules/cell)” value in assay [2] and in assay [3] was 150,000 molecules/cell in each case. Further, the “Total Binding, 0° (molecules/cell)” value in assay [2] is 1,200,000 molecules/cell; in assay [3], 650,000 molecules/cell.
